Results as given in patent publication US20220372155A1 (LYVGEN BIOPHARMA, published 2022).

B1: Ly417 (bispecific antibody, human IgG1, kappa)
heavy: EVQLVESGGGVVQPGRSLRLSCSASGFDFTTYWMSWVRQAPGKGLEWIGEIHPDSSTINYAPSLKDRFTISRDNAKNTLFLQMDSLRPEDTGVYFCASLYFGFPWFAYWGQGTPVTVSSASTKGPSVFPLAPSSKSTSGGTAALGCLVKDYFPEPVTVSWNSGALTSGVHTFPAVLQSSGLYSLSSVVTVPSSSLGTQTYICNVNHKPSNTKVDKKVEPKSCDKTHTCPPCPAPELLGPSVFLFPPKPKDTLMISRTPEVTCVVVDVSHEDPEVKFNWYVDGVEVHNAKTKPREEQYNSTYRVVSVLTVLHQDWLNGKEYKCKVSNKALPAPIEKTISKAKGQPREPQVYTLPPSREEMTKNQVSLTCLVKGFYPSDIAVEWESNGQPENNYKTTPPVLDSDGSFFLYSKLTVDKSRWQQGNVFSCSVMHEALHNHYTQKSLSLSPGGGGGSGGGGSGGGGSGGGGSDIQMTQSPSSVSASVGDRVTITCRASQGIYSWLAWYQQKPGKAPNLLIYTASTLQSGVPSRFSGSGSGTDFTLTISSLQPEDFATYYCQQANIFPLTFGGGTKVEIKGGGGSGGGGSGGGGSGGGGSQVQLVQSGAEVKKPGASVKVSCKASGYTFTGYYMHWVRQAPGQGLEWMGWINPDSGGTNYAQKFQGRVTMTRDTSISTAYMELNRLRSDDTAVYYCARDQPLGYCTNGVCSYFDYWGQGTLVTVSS
light: DIQLTQSPSSLSASVGDRVTITCKASQDVGTSVAWYQQKPGKAPKLLIYWTSTRHTGVPSRFSGSGSGTDFTFTISSLQPEDIATYYCQQYSLYRSFGQGTKVEIKRTVAAPSVFIFPPSDEQLKSGTASVVCLLNNFYPREAKVQWKVDNALQSGNSQESVTEQDSKDSTYSLSSTLTLSKADYEKHKVYACEVTHQGLSSPVTKSFNRGEC
notes: Ly311 HC (IgG1 mutated Fc)-Ly253 scFv VL-VH + Ly311 LC
B2: Ly418 (bispecific antibody, human IgG1, kappa)
heavy: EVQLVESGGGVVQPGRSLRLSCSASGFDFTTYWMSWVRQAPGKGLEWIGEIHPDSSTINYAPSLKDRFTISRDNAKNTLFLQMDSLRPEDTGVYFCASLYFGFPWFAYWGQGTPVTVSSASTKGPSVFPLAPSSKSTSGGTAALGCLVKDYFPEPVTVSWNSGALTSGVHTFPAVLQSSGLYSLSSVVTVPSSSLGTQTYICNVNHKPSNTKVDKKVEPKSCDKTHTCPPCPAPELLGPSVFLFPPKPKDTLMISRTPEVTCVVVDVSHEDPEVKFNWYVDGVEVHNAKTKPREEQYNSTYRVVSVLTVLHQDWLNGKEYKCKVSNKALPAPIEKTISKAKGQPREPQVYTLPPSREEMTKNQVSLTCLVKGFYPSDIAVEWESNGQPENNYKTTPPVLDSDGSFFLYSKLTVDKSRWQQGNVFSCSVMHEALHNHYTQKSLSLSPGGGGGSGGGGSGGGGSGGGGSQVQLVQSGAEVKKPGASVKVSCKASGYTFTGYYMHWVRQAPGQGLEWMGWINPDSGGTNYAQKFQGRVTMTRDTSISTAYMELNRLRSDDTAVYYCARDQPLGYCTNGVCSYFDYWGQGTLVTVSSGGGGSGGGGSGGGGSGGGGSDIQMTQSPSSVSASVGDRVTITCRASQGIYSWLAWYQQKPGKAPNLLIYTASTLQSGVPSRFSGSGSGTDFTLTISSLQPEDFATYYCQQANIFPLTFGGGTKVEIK
light: B1 light
notes: Ly311 HC (IgG1 mutated Fc)-Ly253 scFv VH-VL + Ly311 LC
B3: Ly413 (bispecific antibody, human IgG1, kappa)
heavy: EVQLVESGGGLVQPGGSLRLSCAASGFNIKDTYMHWVRQAPGKGLEWVARIDPANGNSKYADSVKGRFTISADTSKNTAYLQMNSLRAEDTAVYYCAPFGYYVSDYAMAYWGQGTLVTVSSASTKGPSVFPLAPSSKSTSGGTAALGCLVKDYFPEPVTVSWNSGALTSGVHTFPAVLQSSGLYSLSSVVTVPSSSLGTQTYICNVNHKPSNTKVDKKVEPKSCDKTHTCPPCPAPELLGPSVFLFPPKPKDTLMISRTPEVTCVVVDVSHEDPEVKFNWYVDGVEVHNAKTKPREEQYNSTYRVVSVLTVLHQDWLNGKEYKCKVSNKALPAPIEKTISKAKGQPREPQVYTLPPSREEMTKNQVSLTCLVKGFYPSDIAVEWESNGQPENNYKTTPPVLDSDGSFFLYSKLTVDKSRWQQGNVFSCSVMHEALHNHYTQKSLSLSPGGGGGSGGGGSGGGGSGGGGSDIQMTQSPSSLSASVGDRVTITCLASEDISNDLAWYQQKPGKAPKLLIYFVDRLLDGVPSRFSGSGSGTDFTLTISSLQPEDFATYYCQQSYKYPPTFGQGTKLEIKGGGGSGGGGSGGGGSGGGGSEVQLVESGGGLVQPGGSLRLSCAASGFTFTNYGLHWVRQAPGKGLEWVSSISPSGGVTYYRDSVKGRFTISRDNSKNTLYLQMNSLRAEDTAVYYCAKPFLGWGGANWIAHWGQGTLVTVSS
light: DIQLTQSPSSLSASVGDRVTITCRAGESVDIFGVGFLHWYQQKPGKAPKLLIYRASNLESGVPSRFSGSGSRTDFTLTISSLQPEDFATYYCQQTNEDPYTFGQGTKVEIKRTVAAPSVFIFPPSDEQLKSGTASVVCLLNNFYPREAKVQWKVDNALQSGNSQESVTEQDSKDSTYSLSSTLTLSKADYEKHKVYACEVTHQGLSSPVTKSFNRGEC
notes: Ly312 HC (IgG1 mutated Fc)-TM559 scFv VL-VH + Ly312 LC
B4: Ly414 (bispecific antibody, human IgG1, kappa)
heavy: EVQLVESGGGLVQPGGSLRLSCAASGFNIKDTYMHWVRQAPGKGLEWVARIDPANGNSKYADSVKGRFTISADTSKNTAYLQMNSLRAEDTAVYYCAPFGYYVSDYAMAYWGQGTLVTVSSASTKGPSVFPLAPSSKSTSGGTAALGCLVKDYFPEPVTVSWNSGALTSGVHTFPAVLQSSGLYSLSSVVTVPSSSLGTQTYICNVNHKPSNTKVDKKVEPKSCDKTHTCPPCPAPELLGPSVFLFPPKPKDTLMISRTPEVTCVVVDVSHEDPEVKFNWYVDGVEVHNAKTKPREEQYNSTYRVVSVLTVLHQDWLNGKEYKCKVSNKALPAPIEKTISKAKGQPREPQVYTLPPSREEMTKNQVSLTCLVKGFYPSDIAVEWESNGQPENNYKTTPPVLDSDGSFFLYSKLTVDKSRWQQGNVFSCSVMHEALHNHYTQKSLSLSPGGGGGSGGGGSGGGGSGGGGSEVQLVESGGGLVQPGGSLRLSCAASGFTFTNYGLHWVRQAPGKGLEWVSSISPSGGVTYYRDSVKGRFTISRDNSKNTLYLQMNSLRAEDTAVYYCAKPFLGWGGANWIAHWGQGTLVTVSSGGGGSGGGGSGGGGSGGGGSDIQMTQSPSSLSASVGDRVTITCLASEDISNDLAWYQQKPGKAPKLLIYFVDRLLDGVPSRFSGSGSGTDFTLTISSLQPEDFATYYCQQSYKYPPTFGQGTKLEIK
light: B3 light
notes: Ly312 HC (IgG1 mutated Fc)-TM559 scFv VH-VL + Ly312 LC
B5: Ly421 (bispecific antibody, human IgG1, kappa)
heavy: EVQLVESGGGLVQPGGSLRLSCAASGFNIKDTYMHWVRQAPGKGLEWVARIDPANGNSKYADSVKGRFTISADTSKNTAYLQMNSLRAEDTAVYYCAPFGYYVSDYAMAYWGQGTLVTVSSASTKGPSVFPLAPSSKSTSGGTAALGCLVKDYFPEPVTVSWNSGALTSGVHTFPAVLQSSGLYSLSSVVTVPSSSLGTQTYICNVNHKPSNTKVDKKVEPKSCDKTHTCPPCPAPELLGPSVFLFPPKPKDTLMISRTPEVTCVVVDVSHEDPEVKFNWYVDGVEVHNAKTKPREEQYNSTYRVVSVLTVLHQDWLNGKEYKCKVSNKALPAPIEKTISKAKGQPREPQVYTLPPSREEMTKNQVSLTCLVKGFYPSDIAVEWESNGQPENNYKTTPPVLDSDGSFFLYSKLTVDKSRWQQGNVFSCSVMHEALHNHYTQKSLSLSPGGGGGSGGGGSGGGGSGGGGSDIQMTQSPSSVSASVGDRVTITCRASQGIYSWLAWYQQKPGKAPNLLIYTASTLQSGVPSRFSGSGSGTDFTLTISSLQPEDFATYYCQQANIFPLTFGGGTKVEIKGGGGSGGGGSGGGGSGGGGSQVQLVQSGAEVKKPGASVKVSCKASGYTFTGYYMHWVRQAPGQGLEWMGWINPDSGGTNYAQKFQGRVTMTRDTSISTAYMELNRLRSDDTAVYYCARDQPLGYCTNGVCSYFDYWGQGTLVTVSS
light: B3 light
notes: Ly312 HC (IgG1 mutated Fc)-Ly253 scFv VL-VH + Ly312 LC
B6: Ly422 (bispecific antibody, human IgG1, kappa)
heavy: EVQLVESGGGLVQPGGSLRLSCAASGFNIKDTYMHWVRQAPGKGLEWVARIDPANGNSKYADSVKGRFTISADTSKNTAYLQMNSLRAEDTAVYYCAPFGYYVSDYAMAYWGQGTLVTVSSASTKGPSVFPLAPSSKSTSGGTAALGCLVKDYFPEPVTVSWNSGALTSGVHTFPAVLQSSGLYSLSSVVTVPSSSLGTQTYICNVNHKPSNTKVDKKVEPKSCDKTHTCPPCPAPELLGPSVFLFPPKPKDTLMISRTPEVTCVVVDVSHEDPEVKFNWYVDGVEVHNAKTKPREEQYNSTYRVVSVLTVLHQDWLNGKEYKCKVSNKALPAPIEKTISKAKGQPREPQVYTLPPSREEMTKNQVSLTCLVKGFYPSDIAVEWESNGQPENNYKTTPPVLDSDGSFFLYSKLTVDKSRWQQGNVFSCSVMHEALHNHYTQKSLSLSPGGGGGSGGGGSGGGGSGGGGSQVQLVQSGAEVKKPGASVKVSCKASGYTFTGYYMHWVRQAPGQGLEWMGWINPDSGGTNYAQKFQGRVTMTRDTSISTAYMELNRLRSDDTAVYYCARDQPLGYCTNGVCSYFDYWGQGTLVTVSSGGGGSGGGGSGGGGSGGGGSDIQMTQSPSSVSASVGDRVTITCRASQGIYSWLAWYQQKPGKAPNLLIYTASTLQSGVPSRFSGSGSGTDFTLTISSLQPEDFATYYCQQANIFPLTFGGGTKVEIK
light: B3 light
notes: Ly312 HC (IgG1 mutated Fc)-Ly253 scFv VH-VL + Ly312 LC
B7: Ly411 (bispecific antibody, human IgG1, kappa)
heavy: EVQLVESGGGVVQPGRSLRLSCSASGFDFTTYWMSWVRQAPGKGLEWIGEIHPDSSTINYAPSLKDRFTISRDNAKNTLFLQMDSLRPEDTGVYFCASLYFGFPWFAYWGQGTPVTVSSASTKGPSVFPLAPSSKSTSGGTAALGCLVKDYFPEPVTVSWNSGALTSGVHTFPAVLQSSGLYSLSSVVTVPSSSLGTQTYICNVNHKPSNTKVDKKVEPKSCDKTHTCPPCPAPELLGPSVFLFPPKPKDTLMISRTPEVTCVVVDVSHEDPEVKFNWYVDGVEVHNAKTKPREEQYNSTYRVVSVLTVLHQDWLNGKEYKCKVSNKALPAPIEKTISKAKGQPREPQVYTLPPSREEMTKNQVSLTCLVKGFYPSDIAVEWESNGQPENNYKTTPPVLDSDGSFFLYSKLTVDKSRWQQGNVFSCSVMHEALHNHYTQKSLSLSPGK
light: DIQLTQSPSSLSASVGDRVTITCKASQDVGTSVAWYQQKPGKAPKLLIYWTSTRHTGVPSRFSGSGSGTDFTFTISSLQPEDIATYYCQQYSLYRSFGQGTKVEIKRTVAAPSVFIFPPSDEQLKSGTASVVCLLNNFYPREAKVQWKVDNALQSGNSQESVTEQDSKDSTYSLSSTLTLSKADYEKHKVYACEVTHQGLSSPVTKSFNRGECGGGGSGGGGSGGGGSGGGGSDIQMTQSPSSLSASVGDRVTITCLASEDISNDLAWYQQKPGKAPKLLIYFVDRLLDGVPSRFSGSGSGTDFTLTISSLQPEDFATYYCQQSYKYPPTFGQGTKLEIKGGGGSGGGGSGGGGSGGGGSEVQLVESGGGLVQPGGSLRLSCAASGFTFTNYGLHWVRQAPGKGLEWVSSISPSGGVTYYRDSVKGRFTISRDNSKNTLYLQMNSLRAEDTAVYYCAKPFLGWGGANWIAHWGQGTLVTVSS
notes: Ly311 HC (IgG1 mutated Fc) + Ly311 LC-TM559 scFv VL-VH
B8: Ly419 (bispecific antibody, human IgG1, kappa)
heavy: B7 heavy
light: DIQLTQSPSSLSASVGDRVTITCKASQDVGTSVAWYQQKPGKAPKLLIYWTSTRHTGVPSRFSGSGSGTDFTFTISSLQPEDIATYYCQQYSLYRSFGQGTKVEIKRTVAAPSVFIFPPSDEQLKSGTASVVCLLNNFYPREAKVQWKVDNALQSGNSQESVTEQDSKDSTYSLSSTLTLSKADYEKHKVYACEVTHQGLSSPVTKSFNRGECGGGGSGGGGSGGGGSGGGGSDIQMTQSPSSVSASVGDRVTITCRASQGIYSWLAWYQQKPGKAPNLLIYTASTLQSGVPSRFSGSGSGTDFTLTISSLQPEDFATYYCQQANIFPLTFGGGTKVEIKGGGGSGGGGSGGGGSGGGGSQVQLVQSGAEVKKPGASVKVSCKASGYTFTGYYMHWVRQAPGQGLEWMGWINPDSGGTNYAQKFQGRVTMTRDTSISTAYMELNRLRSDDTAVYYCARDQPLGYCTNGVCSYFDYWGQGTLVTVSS
notes: Ly311 HC (IgG1 mutated Fc) + Ly311 LC-Ly253 scFv VL-VH
B9: Ly412 (bispecific antibody, human IgG1, kappa)
heavy: B7 heavy
light: DIQLTQSPSSLSASVGDRVTITCKASQDVGTSVAWYQQKPGKAPKLLIYWTSTRHTGVPSRFSGSGSGTDFTFTISSLQPEDIATYYCQQYSLYRSFGQGTKVEIKRTVAAPSVFIFPPSDEQLKSGTASVVCLLNNFYPREAKVQWKVDNALQSGNSQESVTEQDSKDSTYSLSSTLTLSKADYEKHKVYACEVTHQGLSSPVTKSFNRGECGGGGSGGGGSGGGGSGGGGSEVQLVESGGGLVQPGGSLRLSCAASGFTFTNYGLHWVRQAPGKGLEWVSSISPSGGVTYYRDSVKGRFTISRDNSKNTLYLQMNSLRAEDTAVYYCAKPFLGWGGANWIAHWGQGTLVTVSSGGGGSGGGGSGGGGSGGGGSDIQMTQSPSSLSASVGDRVTITCLASEDISNDLAWYQQKPGKAPKLLIYFVDRLLDGVPSRFSGSGSGTDFTLTISSLQPEDFATYYCQQSYKYPPTFGQGTKLEIK
notes: Ly311 HC (IgG1 mutated Fc) + Ly311 LC-TM559 scFv VH-VL
B10: Ly420 (bispecific antibody, human IgG1, kappa)
heavy: B7 heavy
light: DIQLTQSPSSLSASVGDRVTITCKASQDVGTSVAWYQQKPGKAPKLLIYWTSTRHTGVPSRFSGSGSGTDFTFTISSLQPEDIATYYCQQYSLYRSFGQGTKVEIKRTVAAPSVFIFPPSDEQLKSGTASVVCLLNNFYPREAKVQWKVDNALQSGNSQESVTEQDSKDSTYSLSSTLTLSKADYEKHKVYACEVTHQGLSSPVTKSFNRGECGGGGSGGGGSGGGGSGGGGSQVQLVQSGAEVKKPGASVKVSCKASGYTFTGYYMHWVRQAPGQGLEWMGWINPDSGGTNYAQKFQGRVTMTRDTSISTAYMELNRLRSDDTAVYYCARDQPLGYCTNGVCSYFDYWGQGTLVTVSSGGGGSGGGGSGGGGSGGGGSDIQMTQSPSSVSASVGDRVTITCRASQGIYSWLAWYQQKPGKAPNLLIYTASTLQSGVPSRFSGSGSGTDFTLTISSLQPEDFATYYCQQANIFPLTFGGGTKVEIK
notes: Ly311 HC (IgG1 mutated Fc) + Ly311 LC-Ly253 scFv VH-VL
B11: Ly415 (bispecific antibody, human IgG1, kappa)
heavy: EVQLVESGGGLVQPGGSLRLSCAASGFNIKDTYMHWVRQAPGKGLEWVARIDPANGNSKYADSVKGRFTISADTSKNTAYLQMNSLRAEDTAVYYCAPFGYYVSDYAMAYWGQGTLVTVSSASTKGPSVFPLAPSSKSTSGGTAALGCLVKDYFPEPVTVSWNSGALTSGVHTFPAVLQSSGLYSLSSVVTVPSSSLGTQTYICNVNHKPSNTKVDKKVEPKSCDKTHTCPPCPAPELLGPSVFLFPPKPKDTLMISRTPEVTCVVVDVSHEDPEVKFNWYVDGVEVHNAKTKPREEQYNSTYRVVSVLTVLHQDWLNGKEYKCKVSNKALPAPIEKTISKAKGQPREPQVYTLPPSREEMTKNQVSLTCLVKGFYPSDIAVEWESNGQPENNYKTTPPVLDSDGSFFLYSKLTVDKSRWQQGNVFSCSVMHEALHNHYTQKSLSLSPGK
light: DIQLTQSPSSLSASVGDRVTITCRAGESVDIFGVGFLHWYQQKPGKAPKLLIYRASNLESGVPSRFSGSGSRTDFTLTISSLQPEDFATYYCQQTNEDPYTFGQGTKVEIKRTVAAPSVFIFPPSDEQLKSGTASVVCLLNNFYPREAKVQWKVDNALQSGNSQESVTEQDSKDSTYSLSSTLTLSKADYEKHKVYACEVTHQGLSSPVTKSFNRGECGGGGSGGGGSGGGGSGGGGSDIQMTQSPSSLSASVGDRVTITCLASEDISNDLAWYQQKPGKAPKLLIYFVDRLLDGVPSRFSGSGSGTDFTLTISSLQPEDFATYYCQQSYKYPPTFGQGTKLEIKGGGGSGGGGSGGGGSGGGGSEVQLVESGGGLVQPGGSLRLSCAASGFTFTNYGLHWVRQAPGKGLEWVSSISPSGGVTYYRDSVKGRFTISRDNSKNTLYLQMNSLRAEDTAVYYCAKPFLGWGGANWIAHWGQGTLVTVSS
notes: Ly312 HC (IgG1 mutated Fc) + Ly312 LC-TM559 scFv VL-VH
B12: Ly416 (bispecific antibody, human IgG1, kappa)
heavy: B11 heavy
light: DIQLTQSPSSLSASVGDRVTITCRAGESVDIFGVGFLHWYQQKPGKAPKLLIYRASNLESGVPSRFSGSGSRTDFTLTISSLQPEDFATYYCQQTNEDPYTFGQGTKVEIKRTVAAPSVFIFPPSDEQLKSGTASVVCLLNNFYPREAKVQWKVDNALQSGNSQESVTEQDSKDSTYSLSSTLTLSKADYEKHKVYACEVTHQGLSSPVTKSFNRGECGGGGSGGGGSGGGGSGGGGSEVQLVESGGGLVQPGGSLRLSCAASGFTFTNYGLHWVRQAPGKGLEWVSSISPSGGVTYYRDSVKGRFTISRDNSKNTLYLQMNSLRAEDTAVYYCAKPFLGWGGANWIAHWGQGTLVTVSSGGGGSGGGGSGGGGSGGGGSDIQMTQSPSSLSASVGDRVTITCLASEDISNDLAWYQQKPGKAPKLLIYFVDRLLDGVPSRFSGSGSGTDFTLTISSLQPEDFATYYCQQSYKYPPTFGQGTKLEIK
notes: Ly312 HC (IgG1 mutated Fc) + Ly312 LC-TM559 scFv VH-VL

The binders below were run against T1, human CD40 expressed on CHO cells (human, UniProt P25942 21-277) (assay: FACS, CHO cells).
T1 construct: whole, on cells; also used for the reporter cells over-expressing human CD40; also called cellular CD40; CHO-CD40 cells
T1 sequence (P25942 21-277): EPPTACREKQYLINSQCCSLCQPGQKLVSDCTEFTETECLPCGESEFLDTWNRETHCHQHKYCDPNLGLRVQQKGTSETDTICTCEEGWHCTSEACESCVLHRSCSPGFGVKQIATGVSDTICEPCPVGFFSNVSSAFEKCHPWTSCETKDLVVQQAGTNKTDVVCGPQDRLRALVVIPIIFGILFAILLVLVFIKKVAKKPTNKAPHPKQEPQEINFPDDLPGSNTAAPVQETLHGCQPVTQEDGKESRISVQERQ

binding result | Binder
binds | B1
binds | B2
binds | B3
binds | B4
binds | B5
binds | B6
binds | B7
binds | B8
binds | B9
binds | B10
binds | B11
binds | B12
